Reference: US20180215829A1 (CRESCENDO BIOLOGICS, published 2018)
Like-named read-outs stand apart in the source and are kept apart here.

Tests used:
[1] = molecular target: T1, recombinant human IL-17RA Fc fusion protein (R&D Systems 177-IR-100) (human, UniProt Q96F46 33-320); test: receptor/ligand biochemical inhibition ELISA: VH competes with 1 nM IL-17A for coated IL-17RA-Fc
T1 construct: Bought protein; not shown: Fc domain of human IgG1
T1 sequence: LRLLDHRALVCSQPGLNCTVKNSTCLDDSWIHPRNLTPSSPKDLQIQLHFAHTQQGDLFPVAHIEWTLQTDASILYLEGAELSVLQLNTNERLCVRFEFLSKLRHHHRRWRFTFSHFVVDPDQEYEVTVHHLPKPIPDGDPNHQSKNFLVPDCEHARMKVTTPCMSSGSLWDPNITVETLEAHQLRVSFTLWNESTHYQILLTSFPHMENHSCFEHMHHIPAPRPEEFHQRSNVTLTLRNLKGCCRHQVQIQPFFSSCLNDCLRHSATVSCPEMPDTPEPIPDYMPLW
Protocol: (§1) VH, both purified and crude periplasmic extracts, were also tested for their ability to inhibit the interaction of IL-17A with recombinant IL-17RA-Fc. […] Following washing of excess coating antigen, as described above, the wells of the plate were incubated with 3% Marvel/PBS to block non-specific protein interactions. VH preparations, crude periplasmic extracts or purified VH, or suitable controls, were prepared with 1 nM recombinant IL-17A (Peprotech, cat# AF-200-17) in 3% skimmed milk powder/PBS solution in polypropylene plates or tubes. The mixture was then transferred to the assay plate and incubated for 1 hour at room temperature. Excess protein was removed by washing and bound IL-17A was detected by incubation with biotinylated anti-IL-17A Mab (R & D Systems, cat BAF317) followed by the addition of neutravidin-HRP (Pierce, cat#31030) and TMB substrate (Sigma, cat# T0440). The TMB reaction was stopped by addition of 0.5M H₂SO₄ and absorbances were measured at 450 nm in a plate reader.

[2] = molecular target: T1, recombinant human IL-17RA Fc fusion …; test: BIAcore T200 single-cycle kinetics, IL-17RA-Fc captured on protein G chip, VH as analyte
Protocol: (§2) Binding kinetics of anti-IL-17RA VH antibodies were measured on a BIAcore® T200 instrument. For IL-17RA, first a protein G chip was prepared by diluting protein G to 20 ug/ml in acetate buffer, pH 4 (BIAcore®, cat# BR-100-49) and then coupled 1200 RU to a CM5 Series S chip using amine coupling chemistry. This surface was then used to capture IL-17RA Fc fusion protein from solution: IL-17RA at 10 ug/ml in HBS injected for 10 seconds at 30 ul/min flow rate would capture approximately 100-150 RU of IL-17RA onto the protein G surface.
(§3) Binding kinetics of anti-IL-17RA VH antibodies were determined by single-cycle kinetics. VH antibodies were prepared in dilution series (typically 1:3 dilution series starting with 100 nM VH at the highest concentration), and then injected over the antigen coated surfaces and also a blank surface, starting with the lowest concentration of VH and then working progressively up to the highest concentration. VH binding kinetics were then determined from the (blank subtracted) sensorgram traces using 1:1 binding models and BIAevaluation software.

[3] = molecular target: T1, recombinant human IL-17RA Fc fusion …; test: IL-17RA ligand inhibition ELISA (FIG. 10B): VH competes with IL-17A for coated IL-17RA-Fc
Protocol: as §1

IL-17RD = molecular target: T2, IL-17RD (UniProt Q8NFM7 17-299, limits assumed); test: specificity ELISA, antigen coated, anti-His-HRP detection
T2 sequence (looked up): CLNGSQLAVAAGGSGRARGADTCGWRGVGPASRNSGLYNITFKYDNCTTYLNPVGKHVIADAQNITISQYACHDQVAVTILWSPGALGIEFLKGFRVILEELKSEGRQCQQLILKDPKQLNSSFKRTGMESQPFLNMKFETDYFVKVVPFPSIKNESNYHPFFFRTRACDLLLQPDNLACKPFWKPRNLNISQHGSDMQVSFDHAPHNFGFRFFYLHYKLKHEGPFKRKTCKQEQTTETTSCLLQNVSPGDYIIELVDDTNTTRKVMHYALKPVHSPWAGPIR
Protocol: (§4) The binding ELISA for crude or purified VH was similar to the serum ELISA and phage ELISA, previously described, mostly differing in the final detection steps. Briefly, antigen was immobilised on maxisorb plates (Nunc 443404) by adding 50 ul volumes at 0.1-1 ug/ml in PBS and incubating at 4° C. overnight. Following coating, the antigen solution was aspirated and the plates were washed using PBS (prepared from PBS tablets, Oxoid cat no. BR0014G) supplemented with 0.05% Tween® 20 (sigma P1379), followed by washes with PBS without added Tween®. To block non-specific protein interactions, a solution of 3% skimmed milk powder (Marvel) in PBS was added to the wells and the plate was incubated for at least one hour at room temperature. Dilutions of periplasmic extract or purified VH in 3% Marvel/PBS were prepared in polypropylene tubes or plates and incubated for at least one hour at room temperature prior to transfer to the blocked ELISA plate where a further incubation of at least one hour took place. Unbound protein was then washed away using repetitive washes with PBS/Tween® followed by PBS. A solution of HRP-conjugated anti-His Ab (Miltenyi Biotec, 130-092-785), prepared at 1:1000 dilution in PBS/3% Marvel was then added to each well and a further incubation at room temperature for at least one hour took place. Unbound detection antibody was removed by repeated washing using PBS/Tween® and PBS. The ELISA was then developed using TMB substrate (Sigma cat. no. T0440) and the reaction was stopped after 10 minutes by the addition of 0.5M H₂SO₄ solution (Sigma cat. no. 320501). Absorbances were determined by reading at 450 nm.

IL-17RB = molecular target: T3, IL-17RB (UniProt Q9NRM6 18-289, limits assumed); test: as above
T3 sequence (looked up): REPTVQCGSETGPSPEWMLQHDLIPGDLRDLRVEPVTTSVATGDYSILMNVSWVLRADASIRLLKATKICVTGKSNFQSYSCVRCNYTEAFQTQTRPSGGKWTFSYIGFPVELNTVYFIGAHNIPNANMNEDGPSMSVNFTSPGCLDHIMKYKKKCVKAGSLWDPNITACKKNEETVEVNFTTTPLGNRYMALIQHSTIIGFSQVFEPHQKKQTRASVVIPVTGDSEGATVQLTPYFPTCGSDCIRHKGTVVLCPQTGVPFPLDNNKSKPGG
Protocol: as §4

[4] = molecular target: T4, human IL-17RA on HT1080 cells (human, UniProt Q96F46 33-866); test: cell-based or functional assay
T4 sequence: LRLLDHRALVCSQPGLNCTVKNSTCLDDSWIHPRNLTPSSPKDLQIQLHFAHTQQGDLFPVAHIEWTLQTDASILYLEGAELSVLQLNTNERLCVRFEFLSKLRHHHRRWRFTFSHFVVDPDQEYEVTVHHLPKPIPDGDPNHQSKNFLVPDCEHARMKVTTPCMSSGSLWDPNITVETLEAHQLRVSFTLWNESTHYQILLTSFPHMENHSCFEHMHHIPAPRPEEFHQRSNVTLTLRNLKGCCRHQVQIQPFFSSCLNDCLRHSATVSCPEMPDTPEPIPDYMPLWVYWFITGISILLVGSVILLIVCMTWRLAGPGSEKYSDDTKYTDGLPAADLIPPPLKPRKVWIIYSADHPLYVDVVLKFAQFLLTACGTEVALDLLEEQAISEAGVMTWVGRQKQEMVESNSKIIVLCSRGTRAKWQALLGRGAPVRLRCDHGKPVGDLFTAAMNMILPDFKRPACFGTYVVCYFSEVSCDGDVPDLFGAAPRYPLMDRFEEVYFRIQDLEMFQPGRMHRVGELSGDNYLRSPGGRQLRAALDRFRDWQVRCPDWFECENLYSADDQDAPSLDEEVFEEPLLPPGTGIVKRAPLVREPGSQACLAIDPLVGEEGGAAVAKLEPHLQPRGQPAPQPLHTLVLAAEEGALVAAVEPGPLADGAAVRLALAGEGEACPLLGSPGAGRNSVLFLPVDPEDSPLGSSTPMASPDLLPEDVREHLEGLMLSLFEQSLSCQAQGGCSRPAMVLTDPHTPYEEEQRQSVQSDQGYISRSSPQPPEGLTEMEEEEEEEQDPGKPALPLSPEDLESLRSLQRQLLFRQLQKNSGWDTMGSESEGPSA

[5] = molecular target: T4, human IL-17RA on HT1080 cells; test: cell-based or functional assay; remark: listed apart in the source
[6] = molecular target: T1, recombinant human IL-17RA Fc fusion …; test: BIAcore T200 single-cycle kinetics, IL-17RA-Fc captured on protein G chip, VH as analyte; remark: listed apart in the source
Protocol: as §2, §3

[7] = molecular target: T1, recombinant human IL-17RA Fc fusion …; test: receptor/ligand biochemical inhibition ELISA: VH competes with 1 nM IL-17A for coated IL-17RA-Fc; remark: listed apart in the source
Protocol: as §1

[8] = molecular target: T4, human IL-17RA on HT1080 cells; test: cell-based or functional assay; remark: listed apart in the source

B1: VH clone 3.1 (VHH)
VHH: EVQLVESGGGLVQPGGSLRLSCAASGFPFSTYWMRWLRQAPGKGLEWVANINQDGSEKYYVDSVKGRFTISRDNAKSSLFLQMNSLRAEDTAVYYCARGWESGWFEPWGQGTLVTVSS
notes: Human VH single domain antibody, no light chain; Parent clone of family 3; also called VH 3.1
IC50 [1]: 11 nM | Kd [2]: 9.6 nM

B2: VH clone 3.20 (VHH)
VHH: QVQLVESGGGLVQPGGSLRLSCAASGFPFSTYWMRWLRQAPGKGLEWVANIKQDGSEKYYVDSVKGRFTISRDNAKNSLFLQMNSLRAEDTAVYYCARGWESGWFEPWGQGTLVTVSS
notes: Human VH single domain antibody, no light chain; Family 3; also called VH 3.20
IC50 [3]: 22 nM

B3: VH clone 1.2 (VHH)
VHH: EVQLVESGGGLVQPGRSLRLSCAASGFTFDDYAMHWVRQAPGKGLEWVSGISWNSGRMDYADSVKGRFTISRDNAKNSLYLQMNSLRAEDTALYYCAKEKGLGYCRGGSCSYFDYRGQGTLVTVSS
notes: Human VH single domain antibody, no light chain; Family 1; also called VH 1.2
binding result (IL-17RD): no binding | binding result (IL-17RB): no binding | IC50 (nM), cell-based assay [4]: 141 nM

B4: VH clone 1.1 (VHH)
VHH: QVQLVESGGGLVQPGRSLRLSCAASGFTFDDYAMHWVRQAPGKGLEWVSGISWNSGRMDYADSVKGRFTISRDNAKKSLYLQMNSLRAEDTAMYYCAKEKGLGFCRGGSCSYFDYRGQGTLVTVSS
notes: Human VH single domain antibody, no light chain; Parent clone of family 1; also called VH 1.1
binding result (IL-17RD): no binding | binding result (IL-17RB): no binding | Cell assay IC50 [5]: 4.7 nM | Kd [2]: 0.063 nM | IC50 (nM), cell-based assay [4]: 39 nM

B5: VH clone 7.1 (VHH)
VHH: EVQLVESGGGLVQPGGSLRLSCAASGFTFSNYWMSWVRQARGKGLEWVANIRPDGSERYYVDSVKGRFTISRDNAKNSLYLQMSSLRAEDTAVYYCARSRDWGSRAFDIWGQGTMVTVSS
notes: Human VH single domain antibody, no light chain; Parent clone of family 7
Cell assay IC50 [5]: 1840 nM | Kd [2]: 370 nM

B6: VH clone 6.1 (VHH)
VHH: EVQLVESGGGLVKPGGSLRLSCAASGFTFSDDYMSWLRQAPGKGLEWVSYISSSGSTIYYADSVKGRFTISRDNAKNSLYLQMNSLRAEDSAVYYCARKDITNIAVGSLGYWGQGTLVTVSS
notes: Human VH single domain antibody, no light chain; Parent clone of family 6
Cell assay IC50 [5]: 233 nM | Kd [2]: 31 nM

B7: VH clone 4.1 (VHH)
VHH: QVQLVQSGAEVKKPGASVKVSCKASGYPFTNYDISWIRQATGQSLEWMGWMNPDSGNTGYAQKFQGRVTMTRNTSISTAYMELSGLRSEDTAVYFCARGGYNAWRTDYWGQGTLVTVSS
notes: Human VH single domain antibody, no light chain; Parent clone of family 4
Cell assay IC50 [5]: 282 nM | Kd [2]: 4.5 nM

B8: VH clone 4.55 (VHH)
VHH: QVQLQQSGAEVKKPGASVKVSCKASGYTFTSYDISWVRQATGQSLEYMGWMNPNSGNTGYAQKFQGRVTMTRNTSISTAYMELSSLRSEDTAVYYCARGGITEWRRDYWGQGTLVTVSS
notes: Human VH single domain antibody, no light chain; Family 4
IC50 [3]: 6930 nM

B9: VH clone 5.1 (VHH)
VHH: EVQLVESGGGLVKPGGSLRLSCEASGFTFSDFDMSWIRQAPGKGLEWVAYISSSDSTIYYRDSVKGRFTISRDNAKNSLYLQMNSLRAEDTAVYYCSRNGARYNWNYGDFQHWGQGTLVTVSS
notes: Human VH single domain antibody, no light chain; Parent clone of family 5
Cell assay IC50 [5]: 73 nM | IC50 [1]: 80 nM | Kd [2]: 41 nM

B10: VH 62A4 (VHH)
VHH: QVQLVESGGGLVQPGRSLTLSCTASGFTFHDYAMHWVRQPPGGGLEWVAGVSWNGNNVGYADSVKGRFTISRDNAKKSLYLQMNSLRSEDTALYYCAKGGMGSGSHPDSFSTWGQGTMVTVSS
notes: VH single domain
binding result (IL-17RD): no binding | binding result (IL-17RB): no binding

B11: VH clone 2.3 (VHH)
VHH: QVQLVQSGAEVKKPGASVKVSCKASGYPFTSYDINWVRQATGRSLEWMGWMNPTSGDTVYAQKFQDRVTMTRNTSISTAYMELSSLRSEDTAVYFCARGRRDNWKNNYWGQGTLVTVSS
notes: Human VH single domain antibody, no light chain; Optimised variant of clone 2.1
Kd [6]: 2.5 nM | koff [6]: 0.00137 s⁻¹ | kon [6]: 555000 M⁻¹ s⁻¹ | IC50 [7]: 1.3 nM | Cell assay IC50 [8]: 118 nM
